In the DeepSol protein solubility set:

Assay: soluble on expression in E. coli; label from the status in PepcDB or PDB records
With “MGERKGQNFYYPPDFNYKTHKSLNGYHGTHALRERAKKIDQGILVIRFEMPFNIWCLGCHNHVGMGVRYNAEKKKIGMYYTTPLHEFRMKCHLCDNYYVIRTDPKNFDYELVEGCSRQELRFDPTDIAQIGAVDRGFTQKLAADAMFKKEHEAEDKDKAATEEGRVDKLEWIQERMRDDFTANSFLRAQFRNEKKSLNETRARDANLRDKLSIGTTQLLPETEEDRRIASMMTRYRDTKTHDDHLESSRDRIESRRIFRRPEETDTPSTSSGSSGGAVPSASERLKATMKAERDKRINASFSTAGTSSATQKLLGIKRKSASSLGVQIKKAAPENSSLQDEEPAVEKPNISNPISLIAQEYGNSSDDSD” the “soluble on expression in E. coli” value was “not soluble”.
In the case of “MGESGTKSRFPIRVQLEANKQYYWCRCGLSQSQPFCDGAHRGTGMNPVVFVVRETSPVWLCVCKETKNIPFCDCFRTDLEHHHHHH”, the “soluble on expression in E. coli” value is reported as “not soluble”.
With “MGFAKPPWGGKLKGVVRILGGKARGVALKVPASARPSPVRLRKALFDYLRLRYPRRGRFLDLFAGSGAVGLEAASEGWEAVLVEKDPEAVRLLKENVRRTGLGARVVALPVEVFLPEAKAQGERFTVAFMAPPYAMDLAALFGELLASGLVEAGGLYVLQHPKDLYLPLGERRVYGENALTLVEV” the “soluble on expression in E. coli” value was “soluble”.
For “MGFWCRMSENQEQEEVITVRVQDPRVQNEGSWNSYVDYKIFLHTNSKAFTAKTSCVRRRYREFVWLRKQLQRNAGLVPVPELPGKSTFFGTSDEFIEKRRQGLQHFLEKVLQSVVLLSDSQLHLFLQSQLSVPEIEACVQGRSTMTVSDAILRYAMSNCGWAQEERQSSSHLAKGDQPKSCCFLPRSGRRSSPSPPPSEEKDHLEVWAPVVDSEVPSLESPTLPPLSSPLCCDFGRPKEGTSTLQSVRRAVGGDHAVPLDPGQLETVLEK”, the “soluble on expression in E. coli” value was “soluble”.
With “MGGEGPGSDDIVKKMAQLMMQGAVMLDKTCPADGLPLFKLKTGDVVCPVHGKVVIVASDEEARDVEVEEIIREVRYRAARNVMKGLEEDNVDTVSKWLGVLETAERILAIRRGSRQGQGSVRGEGRESK” the “soluble on expression in E. coli” value was “not soluble”.
In the case of “MGGLFTGIALDSAGHDVTIAEQSAGDLRSRGGGIVAQQSIRQFLSRHDIVDPANITTRASERRFLTADGDVRTSTPDSMVFTSWDAVYRQLRAAFPDDRYHTGQTVTGVRATDGTVTFSDGDRTTADLVVAADGGQSTARAQLFPDADPEFADYVAWRGVVSEAELSDAVIDAFDGRFTFYQGEQMLILAYFIPGEDGNTAPGDRRLNWVWYDTLSGRERETIFTDTTGTSQQFSVSPGQLRDPVESHQRERAAETLPPVFTDLVATTAAPFVQAIYDLQSPQMTVDRVCLVGDAAFVARPHTAAGTSKAASDAVELKAALDRHSSLGGALASWDDARTDYGARLVAQGKRMGDERLSLGSLEHHHHHH”, the “soluble on expression in E. coli” value is reported as “not soluble”.
With “MGGRSRWEIAQESTLALARKCEQFDPDGITVYLFSGKFKRYDDVTSAKVAQIFLENDPAGTTNLAGVLQDALNNYFQRKAAGKTKPNGETILVITDGEPDDRKAVFETIIHATRQMERDEELGISMIQVGSDAQATKFLKALDDQLQSVGAKFDICDTITLEDLEDMSLADVLMNAITDLEHHHHHH” the “soluble on expression in E. coli” value was “not soluble”.
In the case of “MGGSHHHHHHGMASALYAKGGKGSAVPSDSQAREKLALYVYEYLLHIGAQKSAQTFLSEIRWEKNITLGEPPGFLHSWWCVFWDLYCAAPDRREACEHSGEAKAFQDYSAAAAPSPVMGSMAPGDTMAAGSMAAGFFQGPPGSQPSPHNPNAPMMGPHGQPFMSPRFPGGPRPTLRMPSQPPAGLPGSQPLLPGAMEPSPRAQGHPSMGGPMQRVTPPRGMASVGPQSYGGGMRPPPNSLAGPGLPAMNMGPGVRGPWASPSGNSIPYSSSSPGSYTGPPGGGGPPGTPIMPSPGDSTNSSENMYTIMNPIGQGAGRANFPLGPGPEGPMAAMSAMEPHHVNGSLGSGDMDGLPKSSPGAVAGLSNAPGTPRDDGEMAAAGTFLHPFPSESYSPGMTMSV”, the “soluble on expression in E. coli” value is reported as “not soluble”.
For “MGGSHHHHHHGMASAQETNQTPGPMLCSTGCGFYGNPRTNGMCSVCYKEHLQRQQNSGRMSPMGTASGSNSPTSDSASVQRADTSLNNCEGAAGSTSEKSRNVPVAALPVTQQMTEMSISREDKITTPKTEVSEPVVTQPSPSVSQPSTSQSEEKAPELPKPKKNRCFMCRKKVGLTGFDCRCGNLFCGLHRYSDKHNCPYDYKAEAAAKIRKENPVVVAEKIQRI”, the “soluble on expression in E. coli” value was “not soluble”.
For “MGGSHHHHHHGMASMTGGQQMGRTLYDDDDKDRWGSMNYVIIGGDAAGMSAAMQIVRNDENANVVTLEKGEIYSYAQCGLPYVISGAIASTEKLIARNVKTFRDKYGIDAKVRHEVTKVDTEKKIVYAEHTKTKDVFEFSYDRLLIATGVRPVMPEWEGRDLQGVHLLKTIPDAERILKTLETNKVEDVTIIGGGAIGLEMAETFVELGKKVRMIERNDHIGTIYDGDMAEYIYKEADKHHIEILTNENVKAFKGNERVEAVETDKGTYKADLVLVSVGVKPNTDFLEGTNIRTNHKGAIEVNAYMQTNVQDVYAAGDCATHYHVIKEIHDHIPIGTTANKQGRLAGLNMLDKRRAFKGTLGTGIIKFMNLTLARTGLNEKEAKGLHIPYKTVKVDSTNMAGYYPNAKPLYLKLLYRSDTKQLLGGQVIGEEGVDKRIDVIAMALFNKMSIHDLEDVDLSYAPPYNSVWDPIQQAARRAE”, the “soluble on expression in E. coli” value was “soluble”.
With “MGGSHHHHHHGMASTQLFLWEYGDLHLFGPNQRPAPCYDPCEAVLVESIPEGLDFPNASTGNPSTSQAWLGLLAGAHSSLDIASFYWTLTNNDTHTQEPSAQQGEEVLRQLQTLAPKGVNVRIAVSKPSGPQPQADLQALLQSGAQVRMVDMQKLTHGVLHTKFWVVDQTHFYLGSANMDWRSLTQVKELGVVMYNCSCLARDLTKIFEAYWFLGQAGSSIPSTWPRFYDTRYNQETPMEICLNGTPALAYLASAPPPLCPSGRTPDLKALLNVVDNARSFIYVAVMNYLPTLEFSHPHRFWPAIDDGLRRATYERGVKVRLLISCWGHSEPSMRAFLLSLAALRDNHTHSDIQVKLFVVPADEAQARIPYARVNHNKYMVTERATYIGTSNWSGNYFTETAGTSLLVTQNGRGGLRSQLEAIFLRDWDSPYIHDLDTSADSVGNACRLL” the “soluble on expression in E. coli” value was “not soluble”.
For “MGHHHHHAYTLSKSGKEKEEVDEILEEEAEVDELKSPESVVQLLHIDPIEFEFGYGLIPLADANQGGDLLDRIVMIRRQLALELGLVIPVVRIRDNIALQPNEYRLKIKGNEVAKGELLLDHYLAMSPTPEDDLIEGIETVEPSFGLPAKWISEAVKDEADMLGYTVVDPASVVSTHITEKIKQHAHELIGRQETKQLIDHLKESYPVLVEEVTPNPLSVGDIQKVLAKLLKEKVSIRNLVTIFETLADYGKLTTDSDLLTEYTRQALAKQITAQFAKENEVLKVVTCSGRVEKAIADGVQQTEHGNYLSLEPDISESIVRSVAKEAEQLSLRQETAILLCSPPVRMYVKQLLERYFPDLPVLSYNELEANVEVQSIGVVDI”, the “soluble on expression in E. coli” value was “soluble”.
For “MGHHHHHHENLYFQGMKKEKVEQILAEFQLQEEDLKKVMRRMQKEMDRGLRLETHEEASVKMLPTYVRSTPEGSEVGDFLSLDLGGTNFRVMLVKVGEGEEGQWSVKTKHQMYSIPEDAMTGTAEMLFDYISECISDFLDKHQMKHKKLPLGFTFSFPVRHEDIDKGILLNWTKGFKASGAEGNNVVGLLRDAIKRRGDFEMDVVAMVNDTVATMISCYYEDHQCEVGMIVGTGCNACYMEEMQNVELVEGDEGRMCVNTEWGAFGDSGELDEFLLEYDRLVDESSANPGQQLYEKLIGGKYMGELVRLVLLRLVDENLLFHGEASEQLRTRGAFETRFVSQVESDTGDRKQIYNILSTLGLRPSTTDCDIVRRACESVSTRAAHMCSAGLAGVINRMRESRSEDVMRITVGVDGSVYKLHPSFKERFHASVRRLTPSCEITFIESEEGSGRGAALVSAVACKKACMLGQ”, the “soluble on expression in E. coli” value was “soluble”.
With “MGHHHHHHGGHMSLPKFSPCLWFNTQAEEAANFYTTIFEKGAILSKTNYVNEEHQPQGTSLMTIEFTLANQTIIGLNGGPEFSFTPASSFFVECTTLPQTETLWKNLTADGQILMPFGEYPFSPLYGWVVDKFGVSWQVSFSGKEQTIVPTFMFANEKYGEAAKALSEWLAIFGPGEIIEKVEYEDGNIAQALFTLQEQPFRVMDARDKHDFDFTMAFSIYIDCENQEEIDRLWQQVTAKGKEWPCGWMEDQFGVSWQTGNPELKRYLSDSNPARANEVTKKLYQMKKIDLNQLKEVYDKYNHEGGS” the “soluble on expression in E. coli” value was “soluble”.
